The source of these data is patent publication US20240182575A1 (Ablynx, published 2024).

Assay [1] addresses T1, HuCD28-HuIgG1 (fusion protein of the extracellular part of human CD28 and human Fc gamma 1, R&D Systems Cat … (human, UniProt P10747 19-152; P01857 100-330 = IgG part).
T1 construct: extracellular domain;domain: Fc; bought; also called CD28-Ig; hCD28-Fc
Kind of assay: competition ELISA, CD28-hFc in solution; blocked ligand coated B7-1-muFc. Background: An ELISA detects its analyte on a solid surface through an enzyme-linked reagent.

The target of assay [2] is T2, human CD28 on Jurkat cells (human, UniProt P10747 19-220).
T2 construct: whole, on cells; also called native form of the CD28 antigen; cell expressed CD28
Kind of assay: FACS competition, Jurkat cells; blocked ligand CD86-Fc. The text has this: (§1) The potency of cell-expressed CD28 binding Nanobodies to inhibit the interaction of CD28 with either CD80 or CD86 was also ranked using FACS based screening method. […] Dead cells were stained by including TOPRO3 vital dye in the final resuspension buffer. All samples were read on a BD FACSarray instrument. Dead cells were excluded from the analysis by gating out TOPRO3 vital dye positive scoring cells.

In assay [3] the target is T2, human CD28 on Jurkat cells. Nature of the assay: FACS competition, Jurkat cells; blocked ligand CD80-Fc.
Source text: as §1

Assay [4] has as its target T2, human CD28 on Jurkat cells. Kind of assay: FACS, Jurkat cells. The method, then: Binding of putative CD28 reactive Nanobodies clones was detected using unlabeled anti-c-myc tag mouse monoclonal antibody 9E10, followed by a phycoerythrin conjugated F(ab′)2 derived from goat-anti-mouse IgG (human and bovine crossabsorbed), and read on a BD FACSarray instrument. Dead cells were excluded from the analysis by gating out TOPRO3 vital dye positive scoring cells. Binding of the Nanobodies to cells was evaluated in BD FACSarray control software as PE channel histograms.
In general terms: Flow cytometry measures light scatter and fluorescence of single cells or particles in a stream.

In assay [5] the target is T3, human CTLA4 (Y201 mutated to valine) on stably transfected CHO-K1 cells (human, UniProt P16410 36-223).
T3 construct: whole, on cells; the mutation of the intracellular position Y201 keeps the protein on the membrane; also called human CTLA4 overexpressing CHO cells; human CTLA4 transfectant
Nature of the assay: competition FACS on human CTLA4 CHO cells; competitor HuCD80-HuIgG1 10 nM. The text has this:
(§2) The potency of selected Nanobodies to inhibit the interaction of CTLA4 with CD80 was also ranked using FACS based screening method. […] This concentration was previously determined to be the minimal amount required to saturate all CD80 binding sites on both human and cyno CTLA4 expressing CHO cell clones in the absence of any CTLA4 interaction blocking proteins. […] Dead cells were stained by including TOPRO3 vital dye in the final resuspension buffer. All samples were read on a BD FACSarray instrument. Dead cells were excluded from the analysis by gating out TOPRO3 vital dye positive scoring cells.

Assay [6] has as its target T3, human CTLA4 (Y201 mutated to valine) on …. Kind of assay: FACS competition, human CTLA4 CHO cells; blocked ligand CD80-Fc.
Source text: as §2

Assay [7] has as its target T4, HuCTLA4-HuIgG1 (fusion protein of the extracellular part of human CD152 and human Fc gamma 1, CTLA4-Ig) (human, UniProt P16410 36-161).
T4 construct: extracellular domain; also called CTLA4-hFc; CTLA4-Fc; not shown: human Fc gamma 1
Kind of assay: SPR, Biacore T100, CTLA4-Ig amine-coupled. The method, then: Affinity constants (Kd) of individual purified Nanobody clones were determined by surface plasmon resonance on a Biacore T100 instrument. […] Remaining reactive groups were inactivated using ethanolamine. […] Each sample was injected for 2 min at a flow rate of 45 μl/min to allow for binding to chip-bound antigen. Next, binding buffer without Nanobody was sent over the chip at the same flow rate to allow for dissociation of bound Nanobody. After 2 min, remaining bound analyte was removed by injecting regeneration solution (10 mM Glycine/HCl pH 1.5). Binding curves obtained at different concentrations of Nanobody were used to calculate KD values. For some clones, only a single undetermined concentrations of Nanobody was injected.
For orientation: Surface plasmon resonance follows binding to a sensor surface in real time, without labels.

In assay [8] the target is T3, human CTLA4 (Y201 mutated to valine) on …. Kind of assay: FACS, direct binding titration on human CTLA4 CHO cells (head prints IC50). The method, then: Binding of putative CTLA4 reactive Nanobodies clones was detected using unlabeled anti-c-myc tag mouse monoclonal antibody 9E10, followed by a phycoerythrin conjugated F(ab′)2 derived from goat-anti-mouse IgG (human and bovine crossabsorbed), and read on a BD FACSarray instrument. Dead cells were excluded from the analysis by gating out TOPRO3 vital dye positive scoring cells. Binding of the Nanobodies to cells was evaluated in BD FACSarray control software as PE channel histograms.

The target in assay [9] is T5, cynomolgus monkey CTLA4 on stably transfected CHO-K1 cells (human CTLA4 cDNA with S13N, I17T and L105M) (human backbone with cynomolgus monkey …, UniProt P16410 36-223).
T5 chain: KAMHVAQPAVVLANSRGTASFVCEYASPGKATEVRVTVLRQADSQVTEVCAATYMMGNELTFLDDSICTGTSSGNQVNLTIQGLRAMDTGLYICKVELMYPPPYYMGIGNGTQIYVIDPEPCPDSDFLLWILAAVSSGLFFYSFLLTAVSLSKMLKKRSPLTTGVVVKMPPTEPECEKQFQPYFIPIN
Nature of the assay: FACS, direct binding titration on cyno CTLA4 CHO cells (head prints IC50).

Assay [10] concerns the target T4, HuCTLA4-HuIgG1 (fusion protein of the …). Kind of assay: alphascreen; competitor biotinylated HuCD80-MuIgG2a. The text has this:
Individual clones were scored as putative CTLA4/CD80 interaction inhibiting if the presence of the periplasmic extract decreased the fluorescent signal of the acceptor beads.

Assay [11] deals with T6, rhB7-H2-Fc (fusion protein of the extracellular part of human B7-H2 (ICOSL) and mouse Fc gamma 1, R&D Systems … (human; mouse, UniProt O75144 19-256; P01868 98-324 = IgG part, limits assumed).
T6 construct: extracellular domain;domain: Fc; bought; also called B7-H2 ectodomain
Nature of the assay: competition ELISA, periplasmic extract, coated B7-H2; blocked ligand ICOS-biotin. The method, then:
Binding specificity was determined based on OD values compared to controls having received no Nanobody (high control).
After expression, the Nanobodies were purified via the His-tag on Talon beads.

In assay [12] the target is T1, HuCD28-HuIgG1 (fusion protein of the …). Nature of the assay: competition ELISA, periplasmic extract, CD28-hFc in solution; blocked ligand coated B7-1-muFc. The text has this:
This mixture was applied on the coated B7-1 and CD28 was allowed to bind to the immobilized B7-1.

The target in assay [13] is T4, HuCTLA4-HuIgG1 (fusion protein of the …). Nature of the assay: competition ELISA, CTLA4-hFc in solution; blocked ligand coated B7-1-muFc.
Assay [14] shares this target. Kind of assay: competition ELISA, CTLA4-hFc in solution; blocked ligand coated B7-2-muFc.
Assay [15] has the same target. Nature of the assay: competition ELISA, CTLA4-hFc in solution; blocked ligand coated B7-1-muFc. The method, then: In order to determine B7-1 competition efficiency of CTLA4 binding Nanobodies, the purified clones were tested in an ELISA competition assay setup.
This is another data set of the same source.

For orientation: IC50 means the point on the concentration scale where inhibition reaches its midpoint. One may read the Kd as the free concentration of one partner at which half of the binding sites on the other are occupied at equilibrium, for simple one-to-one binding. In general, koff refers to the rate constant with which the complex falls apart. For orientation: kon means a measure of how fast the partners come together.

B1: 65C4 (VHH)
VHH: EVQLVESGGGLVQAGGSLRLSCKAAGRTFSSYAMGWFRQAPGKEREFVASIEWDGGGAYYEEAVKGRFTISRDNTKNTVYLQMDSLRPEDTAVYYCAASRWRTALTNYYDVADWGQGTQVTVSS
notes: Nanobody against CD28
On to B1, for which the “IC50 (read off the curve)” value is around 100 nM in assay [1], around 7 ng/well in [2] and around 10 ng/well in assay [3]. Further, in assay [4], the “EC50 (read off the curve)” value was around 20 ng/well.

B2: 65C2 (VHH)
VHH: EVQLVESGGGLVQAGGSLRLSCAASGLTFSNYVMGWFRQAPGKEREFVGTISWDGSDTYYTHSVKGRFTISRDNAKNVVNLQMNSLKPEDTAVYYCAADYRPGGLLSLGKNEYDYWGQGTQVTVSS
notes: Nanobody against CD28
For the molecule B2, the “IC50 (read off the curve)” value in assay [1] is around 90 nM; in assay [2], around 2 ng/well; in assay [3], around 3 ng/well. The “EC50 (read off the curve)” value in assay [4] was around 2 ng/well.

B3: 4CTLAPMP02F4 (VHH)
VHH: EVQLVESGGGLVQTGGSLRLSCAASGRTFSNYTMGWFRQAPGKDREFVAAISRSGALKAYADSVKGRFTPSRDNAKKMAYLQMNSLKPEDTAVYYCAAAPVPWGTRPSFFPYDSWGQGTQVTVSS
notes: short label tied to the entry by the clone code only; not shown: C-terminal c-myc tag and His6 tag
As for B3, the IC50 in [5] is 11.4 nM; in [8] it was 2.38 nM; in assay [9] it was 2.36 nM; in [10], 0.827 nM. Also, the “IC50 (read off the curve)” value in [6] was around 10 nM. In assay [7], this molecule gave a Kd of 0.466 nM. Besides, the koff in [7] was determined as 0.00266 s⁻¹. This molecule showed a kon in [7] of 5.69e+06 M⁻¹ s⁻¹.

B4: 95G6 (VHH)
VHH: EVQLVESGGALVQPGGSLRLSCAASGFTLGDYVIGWFRQAPGKEREWVSGISSRDGTTYYADSVKGRFTISRDNAKNTMYLQMNSLKPEDTAVYYCALRSGIAVARAPSNYDYWGQGTQVTVSS
notes: Nanobody against B7-H2 (ICOSL)
On to B4, for which the binding result in assay [11] is “binds”.

B5: 65G2 (VHH)
VHH: EVQLVESGGGLVQPGGSLRLSCAASGFTLDAYAIHWFRQAPGKEREGVSCISSSDGSTYYANSVKGRFTISRDNAKNAVYLQMNSLKPEDTAVYYCATAKRCWGLSYEYDYWGQGTQVTVSS
notes: Nanobody against CD28
As to B5, the binding result in assay [12] and in assay [4] was “binds” each time.

B6: 65H7 (VHH)
VHH: EVQLVESGGGLVQPGGSLRLSCAASGSILSIAVAGWYRRQPGKERELVATISPGNNTHYVDSVKGRFTISRDNAKNTVYLQMTTLKPDDTAAYYCNAKGSILLNAFDYWGKGTQVTVSS
notes: Nanobody against CTLA4; also called 65H7 (4-1)
Consider B6, for which the entries for the “IC50 (read off the curve)” value in assay [13], in assay [14] and in [15] were around 100 nM, around 200 nM and around 100 nM, respectively.

B7: 4CTLAPMP11F1 (VHH)
VHH: EVQLVESGGGLVQAGGSLRLSCAASGGTFSFYGMGWFRQAPGKEQEFVADIRTSAGRTYYADSVKGRFTISRDNAKNTVYLQMNSLKPEDTAVYYCAAEMSGISGWDYWGQGTQVTVSS
notes: short label tied to the entry by the clone code only; also called 11F1 WT; not shown: C-terminal c-myc tag and His6 tag
Turning to B7, the IC50 in assay [5] is 36.4 nM; in assay [8] it was 4.55 nM; in assay [9], 5.51 nM; in assay [10], 1.04 nM. The same molecule gave a Kd in assay [7] of 10 nM. This molecule also showed a koff in assay [7] of 0.0187 s⁻¹. Moreover, the kon in assay [7] came out at 1.86e+06 M⁻¹ s⁻¹.

B8: 65D10 (VHH)
VHH: EVQLVESGGGLVQAGGSLRLSCAASGRTSSTATVGWFRQAPGKEREFVAVINWRSGFTYYADSVKGRFTISREYAKNTVYLQMDSLKPEDTAVYSCAADLGGRTLYGGIHYSPEEYAYWGQGTQVTVSS
notes: Nanobody against CTLA4; also called 65D10 (4-4)
For B8, the “IC50 (read off the curve)” value in assay [15] was around 200 nM.

B9: 66B5 (VHH)
VHH: EVQLVESGGGLVQPGESLRLSCAASKSIFSISVMAWYRQAPGKQRELVARITPGGNTNYVDSVQGRFTISRDNAKNTVYLQMNSLKPEDTAVYYCNAQGSLLLAKYDYYGQGTQVTVSS
notes: Nanobody against CTLA4
For B9, the binding result in [14] is given as “binds”.
